From patent publication US20190185537A1 (AstraZeneca / MedImmune, published 2019)
Numbered stars: 1 amine (or outer) side, 2 acyl side, 3 side chain; on linkers, the order of the positions; unused ones are H or OH. Side chains are listed from the residue outwards. Ends that are not written are not given here. * marks the point of attachment. γGlu = O=C(O)[C@H](CCC(=O)[*:2])N[*:1]; Palmitoyl = CCCCCCCCCCCCCCCC(=O)*; Ahx = NCCCCCC(=O)O; βAla = NCCC(=O)O

T1: human glucose-dependent insulinotropic peptide (gastric inhibitory polypeptide) receptor (human) (UniProt P48546)
T1 sequence (looked up): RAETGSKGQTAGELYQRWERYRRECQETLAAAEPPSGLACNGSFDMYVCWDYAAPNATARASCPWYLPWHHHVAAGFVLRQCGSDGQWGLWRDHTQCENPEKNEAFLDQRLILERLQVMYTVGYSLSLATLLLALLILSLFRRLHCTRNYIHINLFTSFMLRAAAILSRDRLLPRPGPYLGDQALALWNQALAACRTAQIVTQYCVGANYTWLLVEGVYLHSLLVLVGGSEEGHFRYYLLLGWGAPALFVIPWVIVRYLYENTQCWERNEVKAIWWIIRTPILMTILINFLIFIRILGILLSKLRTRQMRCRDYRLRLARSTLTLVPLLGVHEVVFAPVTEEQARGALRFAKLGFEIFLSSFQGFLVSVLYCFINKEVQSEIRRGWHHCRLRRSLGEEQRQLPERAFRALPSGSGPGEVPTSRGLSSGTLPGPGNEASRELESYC


Experiments:
Experiment in all cases: cell-based or functional assay
human GLP-1 receptor = human GLP-1 receptor (human, UniProt P43220 24-463)
human glucagon receptor = human glucagon receptor (human, UniProt P47871 26-477)
[1] = molecular target: T1, human glucose-dependent insulinotropic peptide (gastric inhibitory polypeptide) receptor (human)

Chain of human GLP-1 receptor (P43220 24-463): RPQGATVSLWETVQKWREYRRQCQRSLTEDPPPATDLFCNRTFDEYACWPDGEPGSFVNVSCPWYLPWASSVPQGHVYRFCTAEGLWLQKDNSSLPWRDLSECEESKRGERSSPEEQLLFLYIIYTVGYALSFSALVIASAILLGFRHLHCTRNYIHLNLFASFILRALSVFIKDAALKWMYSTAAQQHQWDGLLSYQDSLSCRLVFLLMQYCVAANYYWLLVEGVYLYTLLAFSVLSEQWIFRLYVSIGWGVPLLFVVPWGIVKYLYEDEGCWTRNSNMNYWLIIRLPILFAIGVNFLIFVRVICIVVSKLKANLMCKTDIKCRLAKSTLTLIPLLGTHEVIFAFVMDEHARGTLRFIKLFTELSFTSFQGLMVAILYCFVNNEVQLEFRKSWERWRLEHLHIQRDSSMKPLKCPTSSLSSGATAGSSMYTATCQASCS
Chain of human glucagon receptor (P47871 26-477): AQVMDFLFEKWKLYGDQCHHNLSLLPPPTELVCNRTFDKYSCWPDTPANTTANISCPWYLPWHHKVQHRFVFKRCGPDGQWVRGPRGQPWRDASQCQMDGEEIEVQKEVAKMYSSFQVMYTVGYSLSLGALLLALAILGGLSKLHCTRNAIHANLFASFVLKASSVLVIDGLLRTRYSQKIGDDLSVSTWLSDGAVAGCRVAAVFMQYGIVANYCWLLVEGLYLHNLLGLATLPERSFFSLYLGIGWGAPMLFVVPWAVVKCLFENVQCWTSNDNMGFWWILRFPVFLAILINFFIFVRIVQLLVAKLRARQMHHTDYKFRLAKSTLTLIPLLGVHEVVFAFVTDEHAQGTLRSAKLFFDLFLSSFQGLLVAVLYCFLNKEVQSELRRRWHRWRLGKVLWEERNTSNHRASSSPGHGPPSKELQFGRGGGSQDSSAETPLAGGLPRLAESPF

Binder	cAMP EC50 (assay 1) (human GLP-1 receptor) [nM]	cAMP EC50 (assay 1) (human glucagon receptor) [nM]	cAMP EC50 (assay 1) [1] [nM]
HGQGTFTSDYSKYLDSK([γGlu-Palmitoyl])RAQDFVQWLERGG-NH2 (N-terminus assumed; SMILES CCCCCCCCCCCCCCCC(=O)N[C@@H](CCC(=O)NCCCC[C@H](NC(=O)[C@H](CO)NC(=O)[C@H](CC(=O)O)NC(=O)[C@H](CC(C)C)NC(=O)[C@H](Cc1ccc(O)cc1)NC(=O)[C@H](CCCCN)NC(=O)[C@H](CO)NC(=O)[C@H](Cc1ccc(O)cc1)NC(=O)[C@H](CC(=O)O)NC(=O)[C@H](CO)NC(=O)[C@@H](NC(=O)[C@H](Cc1ccccc1)NC(=O)[C@@H](NC(=O)CNC(=O)[C@H](CCC(N)=O)NC(=O)CNC(=O)[C@@H](N)Cc1c[nH]cn1)[C@@H](C)O)[C@@H](C)O)C(=O)N[C@@H](CCCNC(=N)N)C(=O)N[C@@H](C)C(=O)N[C@@H](CCC(N)=O)C(=O)N[C@@H](CC(=O)O)C(=O)N[C@@H](Cc1ccccc1)C(=O)N[C@H](C(=O)N[C@@H](CCC(N)=O)C(=O)N[C@@H](Cc1c[nH]c2ccccc12)C(=O)N[C@@H](CC(C)C)C(=O)N[C@@H](CCC(=O)O)C(=O)N[C@@H](CCCNC(=N)N)C(=O)NCC(=O)NCC(N)=O)C(C)C)C(=O)O) [g588]	0.11	0.0723	98
HSQGTFTSDYSEYLDSK([γGlu-Palmitoyl])RARDFVAWLERGG-NH2 (not fully specified) [g772]	0.292	0.184	1540
HSQGTFTSDYSEYLDSK([Ahx-Palmitoyl])RAQDFVQWLERGG-NH2 (N-terminus assumed; SMILES CCCCCCCCCCCCCCCC(=O)NCCCCCC(=O)NCCCC[C@H](NC(=O)[C@H](CO)NC(=O)[C@H](CC(=O)O)NC(=O)[C@H](CC(C)C)NC(=O)[C@H](Cc1ccc(O)cc1)NC(=O)[C@H](CCC(=O)O)NC(=O)[C@H](CO)NC(=O)[C@H](Cc1ccc(O)cc1)NC(=O)[C@H](CC(=O)O)NC(=O)[C@H](CO)NC(=O)[C@@H](NC(=O)[C@H](Cc1ccccc1)NC(=O)[C@@H](NC(=O)CNC(=O)[C@H](CCC(N)=O)NC(=O)[C@H](CO)NC(=O)[C@@H](N)Cc1c[nH]cn1)[C@@H](C)O)[C@@H](C)O)C(=O)N[C@@H](CCCNC(=N)N)C(=O)N[C@@H](C)C(=O)N[C@@H](CCC(N)=O)C(=O)N[C@@H](CC(=O)O)C(=O)N[C@@H](Cc1ccccc1)C(=O)N[C@H](C(=O)N[C@@H](CCC(N)=O)C(=O)N[C@@H](Cc1c[nH]c2ccccc12)C(=O)N[C@@H](CC(C)C)C(=O)N[C@@H](CCC(=O)O)C(=O)N[C@@H](CCCNC(=N)N)C(=O)NCC(=O)NCC(N)=O)C(C)C) [g614]	0.00931	0.00365	99.3
HGQGTFTSDYSEYLDSK([γGlu-Palmitoyl])RARDFVAWLERGG-NH2 (N-terminus assumed; SMILES CCCCCCCCCCCCCCCC(=O)N[C@@H](CCC(=O)NCCCC[C@H](NC(=O)[C@H](CO)NC(=O)[C@H](CC(=O)O)NC(=O)[C@H](CC(C)C)NC(=O)[C@H](Cc1ccc(O)cc1)NC(=O)[C@H](CCC(=O)O)NC(=O)[C@H](CO)NC(=O)[C@H](Cc1ccc(O)cc1)NC(=O)[C@H](CC(=O)O)NC(=O)[C@H](CO)NC(=O)[C@@H](NC(=O)[C@H](Cc1ccccc1)NC(=O)[C@@H](NC(=O)CNC(=O)[C@H](CCC(N)=O)NC(=O)CNC(=O)[C@@H](N)Cc1c[nH]cn1)[C@@H](C)O)[C@@H](C)O)C(=O)N[C@@H](CCCNC(=N)N)C(=O)N[C@@H](C)C(=O)N[C@@H](CCCNC(=N)N)C(=O)N[C@@H](CC(=O)O)C(=O)N[C@@H](Cc1ccccc1)C(=O)N[C@H](C(=O)N[C@@H](C)C(=O)N[C@@H](Cc1c[nH]c2ccccc12)C(=O)N[C@@H](CC(C)C)C(=O)N[C@@H](CCC(=O)O)C(=O)N[C@@H](CCCNC(=N)N)C(=O)NCC(=O)NCC(N)=O)C(C)C)C(=O)O) [g721]	0.411	3.23	979
HGQGTFTSDYSEYLDSK([Ahx-Palmitoyl])RARDFVAWLERGG-NH2 (N-terminus assumed; SMILES CCCCCCCCCCCCCCCC(=O)NCCCCCC(=O)NCCCC[C@H](NC(=O)[C@H](CO)NC(=O)[C@H](CC(=O)O)NC(=O)[C@H](CC(C)C)NC(=O)[C@H](Cc1ccc(O)cc1)NC(=O)[C@H](CCC(=O)O)NC(=O)[C@H](CO)NC(=O)[C@H](Cc1ccc(O)cc1)NC(=O)[C@H](CC(=O)O)NC(=O)[C@H](CO)NC(=O)[C@@H](NC(=O)[C@H](Cc1ccccc1)NC(=O)[C@@H](NC(=O)CNC(=O)[C@H](CCC(N)=O)NC(=O)CNC(=O)[C@@H](N)Cc1c[nH]cn1)[C@@H](C)O)[C@@H](C)O)C(=O)N[C@@H](CCCNC(=N)N)C(=O)N[C@@H](C)C(=O)N[C@@H](CCCNC(=N)N)C(=O)N[C@@H](CC(=O)O)C(=O)N[C@@H](Cc1ccccc1)C(=O)N[C@H](C(=O)N[C@@H](C)C(=O)N[C@@H](Cc1c[nH]c2ccccc12)C(=O)N[C@@H](CC(C)C)C(=O)N[C@@H](CCC(=O)O)C(=O)N[C@@H](CCCNC(=N)N)C(=O)NCC(=O)NCC(N)=O)C(C)C) [g684]	0.0151	0.164	146
HGEGTFTSDYSEYLDSK([Ahx-Palmitoyl])RARDFVAWLERGG-NH2 (N-terminus assumed; SMILES CCCCCCCCCCCCCCCC(=O)NCCCCCC(=O)NCCCC[C@H](NC(=O)[C@H](CO)NC(=O)[C@H](CC(=O)O)NC(=O)[C@H](CC(C)C)NC(=O)[C@H](Cc1ccc(O)cc1)NC(=O)[C@H](CCC(=O)O)NC(=O)[C@H](CO)NC(=O)[C@H](Cc1ccc(O)cc1)NC(=O)[C@H](CC(=O)O)NC(=O)[C@H](CO)NC(=O)[C@@H](NC(=O)[C@H](Cc1ccccc1)NC(=O)[C@@H](NC(=O)CNC(=O)[C@H](CCC(=O)O)NC(=O)CNC(=O)[C@@H](N)Cc1c[nH]cn1)[C@@H](C)O)[C@@H](C)O)C(=O)N[C@@H](CCCNC(=N)N)C(=O)N[C@@H](C)C(=O)N[C@@H](CCCNC(=N)N)C(=O)N[C@@H](CC(=O)O)C(=O)N[C@@H](Cc1ccccc1)C(=O)N[C@H](C(=O)N[C@@H](C)C(=O)N[C@@H](Cc1c[nH]c2ccccc12)C(=O)N[C@@H](CC(C)C)C(=O)N[C@@H](CCC(=O)O)C(=O)N[C@@H](CCCNC(=N)N)C(=O)NCC(=O)NCC(N)=O)C(C)C) [g724]	0.019	30.9	933

Continued, values first:

cAMP EC50 (assay 1) (human GLP-1 receptor) [nM]	cAMP EC50 (assay 1) (human glucagon receptor) [nM]	cAMP EC50 (assay 1) [1] [nM]	Binder
0.0191	0.00367	86.7	HSQGTFTSDYSEYLDSK([Ahx-Palmitoyl])RARDFVEWLENT-NH2 (not fully specified) [g825]
0.0734	0.11	579	HSQGTFTSDYSEYLDSK([βAla-Palmitoyl])RARDFVAWLERGG-NH2 (not fully specified) [g795]
0.018	0.00234	103	HSQGTFTSDYSKYLDSK([βAla-Palmitoyl])RARDFVAWLEAGG-NH2 (N-terminus assumed; SMILES CCCCCCCCCCCCCCCC(=O)NCCC(=O)NCCCC[C@H](NC(=O)[C@H](CO)NC(=O)[C@H](CC(=O)O)NC(=O)[C@H](CC(C)C)NC(=O)[C@H](Cc1ccc(O)cc1)NC(=O)[C@H](CCCCN)NC(=O)[C@H](CO)NC(=O)[C@H](Cc1ccc(O)cc1)NC(=O)[C@H](CC(=O)O)NC(=O)[C@H](CO)NC(=O)[C@@H](NC(=O)[C@H](Cc1ccccc1)NC(=O)[C@@H](NC(=O)CNC(=O)[C@H](CCC(N)=O)NC(=O)[C@H](CO)NC(=O)[C@@H](N)Cc1c[nH]cn1)[C@@H](C)O)[C@@H](C)O)C(=O)N[C@@H](CCCNC(=N)N)C(=O)N[C@@H](C)C(=O)N[C@@H](CCCNC(=N)N)C(=O)N[C@@H](CC(=O)O)C(=O)N[C@@H](Cc1ccccc1)C(=O)N[C@H](C(=O)N[C@@H](C)C(=O)N[C@@H](Cc1c[nH]c2ccccc12)C(=O)N[C@@H](CC(C)C)C(=O)N[C@@H](CCC(=O)O)C(=O)N[C@@H](C)C(=O)NCC(=O)NCC(N)=O)C(C)C) [g819]
0.0424	0.0911	846	HSQGTFTSDYSEYLDSK([βAla-Palmitoyl])RARDFVAWLEAGG-NH2 (N-terminus assumed; SMILES CCCCCCCCCCCCCCCC(=O)NCCC(=O)NCCCC[C@H](NC(=O)[C@H](CO)NC(=O)[C@H](CC(=O)O)NC(=O)[C@H](CC(C)C)NC(=O)[C@H](Cc1ccc(O)cc1)NC(=O)[C@H](CCC(=O)O)NC(=O)[C@H](CO)NC(=O)[C@H](Cc1ccc(O)cc1)NC(=O)[C@H](CC(=O)O)NC(=O)[C@H](CO)NC(=O)[C@@H](NC(=O)[C@H](Cc1ccccc1)NC(=O)[C@@H](NC(=O)CNC(=O)[C@H](CCC(N)=O)NC(=O)[C@H](CO)NC(=O)[C@@H](N)Cc1c[nH]cn1)[C@@H](C)O)[C@@H](C)O)C(=O)N[C@@H](CCCNC(=N)N)C(=O)N[C@@H](C)C(=O)N[C@@H](CCCNC(=N)N)C(=O)N[C@@H](CC(=O)O)C(=O)N[C@@H](Cc1ccccc1)C(=O)N[C@H](C(=O)N[C@@H](C)C(=O)N[C@@H](Cc1c[nH]c2ccccc12)C(=O)N[C@@H](CC(C)C)C(=O)N[C@@H](CCC(=O)O)C(=O)N[C@@H](C)C(=O)NCC(=O)NCC(N)=O)C(C)C) [g783]
